The data set deals with the molecule itself. Put plainly: crystal structure; metal-free BbZIP crystallised in lipidic cubic phase (monoolein), 100 mM NaOAc-HOAc pH 4.5, LiSO4, PEG400, 20°C; two molecules in the asymmetric unit; parallel dimers seen in the crystal packing.

B1: ZIP from Bordetella bronchiseptica (BbZIP), wild type (natural protein, UniProt A0A0H3LM39 1-309, looked up)
chain: MNQPSSLAADLRGAWHAQAQSHPLITLGLAASAAGVVLLLVAGIVNALTGENRVHVGYAVLGGAAGFAATALGALMALGLRAISARTQDAMLGFAAGMMLAASAFSLILPGLDAAGTIVGPGPAAAAVVALGLGLGVLLMLGLDYFTPHEHERTGHQGPEAARVNRVWLFVLTIILHNLPEGMAIGVSFATGDLRIGLPLTSAIAIQDVPEGLAVALALRAVGLPIGRAVLVAVASGLMEPLGALVGVGISSGFALAYPISMGLAAGAMIFVVSHEVIPETHRNGHETTATVGLMAGFALMMFLDTALG
notes: density seen for residues 21-145, 165-279, 285-309 (chain A) and 18-77, 84-145, 166-219, 225-307 (chain B) of the metal-free structure; also called Zrt/Irt-like protein; WT; source: E. coli C43(DE3), purified (DDM solubilisation, HisTrap IMAC, SEC)
With B1, the binding result was “binds”.
